Test results reported in patent US9074238B2, “Methods for enhancing neprilysin activity and degrading amyloid-beta peptides and oligomers in a subject with Alzheimer's disease” (ACADEMIA SINICA, priority 2011, dated 2015).
“Also recorded” adds a separate entry of the source. Primed or numbered codes have the meaning given here. *: point of attachment. Alexa‑350 = fluorescent label on the Cys side chain (double-labeled qf-Aβ(1-7)C); Dabcyl′ = CN(C)c1ccc(/N=N/c2ccc(C(=O)*)cc2)cc1

Columns and labels:
NEP = assay: Screening of compounds for NEP activity of SH-SY5Y cells with qf-Aβ(1-7)C substrate; assay type: cell-based, human; details: 5 μM compound, 24 hr; 2 μM qf-Aβ(1-7)C, 1 h
Description: The compound number is indicated on the left of each bar. […] (**, p value<0.001; *, p value<0.01).
Analogs comprising at least three hydroxyl groups attached to the two aromatic rings of the curcumin structure scaffold (Compound 1) were particularly active in enhancing NEP activity.
Human SH-SY5Y cells were cultured in the Dulbecco's modified Eagle's medium (DMEM, Gibco, USA) supplemented with 10% fetal bovine serum (FBS; Biological industries, USA) in 5% CO2 at 37° C. The cells were harvested and re-suspended in the phenol red-free DMEM medium supplemented with 10% FBS at a density of 1×10^6 cells/mL. 100 μL of cell culture was added in each well of a 96-well plate. The compounds (no. 1 to no. 24) were dissolved in DMSO, and the others (no. 25 and no. 26) were dissolved in sterilized water to make the stock solution (1 mM). Each compound was mixed with phenol red-free DMEM supplemented with 10% FBS to a final concentration of 10 μM. 100 μL of the medium containing 10 μM indicated compound was added into the wells to make the final compound concentration 5 μM. After incubation for 24 hr, the medium of the culture was replaced with the phenol red-free DMEM medium (not FBS) containing 2 μM qf-Aβ(1-7)C and incubation continued for additional 1 h. To measure the proteolytic activity, 100 μL of the medium was taken out for fluorescence measurement on SpectraMax Gemini EM (Molecular Devices, USA) with excitation at 346 nm and emission at 442 nm. The average of three replicate wells was used for each sample and control.

MMP-3 = target: T1, MMP-3 (Homo sapiens, UniProt P08254); assay: Fluorogenic enzyme assay, peptide substrate digested by MMP-3; assay type: biochemical; details: 2 μM substrate
T1 construct: purchased R&D Systems (USA)
Description: (§1) Recombinant human NEP (0.5 mg/mL), insulin-degrading enzyme (IDE) (0.386 mg/mL), endothelin-converting enzyme 1 (ECE-1) (0.298 mg/mL), matrix metalloproteinases (MMP)-3 (0.124 mg/mL) and MMP-9 (0.5 mg/mL), and angiotensin-converting enzyme (ACE) (0.434 mg/mL) were purchased from R&D Systems (USA). Human plasmin (1 mM) was purchased from Sigma (USA). […] MMP-3 and MMP-9 were pre-activated by incubation at 37° C. for 24 h with 1 mM p-aminophenylmercuric acetate. The quenched fluorogenic peptide substrate qf-Aβ(1-7)C (0.4 μL of the 1 mM stock in DMSO) was mixed with different concentrations of enzyme solution (final peptide concentration 2 μM) on a 96-well plate. The final volume of the reaction solution was kept as 200 μL. The mixture was incubated in the dark for 1, 2, 3, or 4 h at 37° C., and then the fluorescence was measured with excitation at 360 nm and emission at 465 nm on a Paradigm™ Detection Platform (Beckman Coulter, USA) (FIG. 5).

[1] = target: T2, insulin-degrading enzyme (IDE) (Homo sapiens, UniProt P14735); assay: Fluorogenic enzyme assay, peptide substrate digested by IDE; assay type: biochemical
T2 construct: purchased R&D Systems (USA)
Description: as §1
The assay system was sensitive enough to detect as low as 0.10 nM NEP. […]
(§2) One commercially available quenched fluorogenic peptide substrate, Dansyl-^DAGF(pNO2)G, was tested for comparison. The fluorescence of dansyl is quenched by the presence of nitrophenyl group. Digestion was monitored by the fluorescence increase of dansyl at 562 nm when excited at 342 nm. […]

Human plasmin = target: T3, Human plasmin (Homo sapiens, UniProt P00747); assay: Fluorogenic enzyme assay, peptide substrate digested by plasmin; assay type: biochemical; details: 2 μM substrate
T3 construct: Human plasmin (1 mM) was purchased from Sigma (USA); purchased Sigma (USA)
Description: as §1

MMP-9 = target: T4, MMP-9 (Homo sapiens, UniProt P14780); assay: Fluorogenic enzyme assay, peptide substrate digested by MMP-9; assay type: biochemical; details: 2 μM substrate, pH 7.5, 37° C.
T4 construct: purchased R&D Systems (USA)
Description: as §1

recombinant human NEP = target: T5, recombinant human NEP (Homo sapiens, UniProt P08473); assay: Fluorogenic enzyme assay, peptide substrate digested by NEP; assay type: biochemical
T5 construct: purchased R&D Systems (USA)
Description: To determine the optimal reaction conditions, 0.92 nM NEP was mixed with different concentrations of qf-Aβ(1-7)C, then, after incubation for 1, 2, 3, or 4 h at 37° C., the peptide-degrading activity of NEP was measured by recording fluorescence emission at 465 nm. The fluorescence intensity increased at least 40-fold with the degradation of the quenched fluorogenic peptide. […] Incubation for 1 h was sufficient for detection. At higher substrate concentrations, the fluorescence intensity was much larger, but the error increased. To test whether the sensitivity of NEP detection was increased when a higher substrate concentration was used, 1.84 μM qf-Aβ(1-7)C was mixed with different concentrations of NEP and reacted at 37° C. for 1, 2, 3, or 4 h and the fluorescence emission at 465 nm measured (FIG. 4). […] The substrate concentration of 1.84 μM or more was therefore used in the following studies.
To determine the optimal substrate concentration in the fluorogenic enzyme assay, NEP (0.5 mg/mL) and substrate peptide qf-Aβ(1-7)C (1 mM) were mixed in 50 mM Tris-HCl (pH 7.5), 25 mM NaCl, 5 μM ZnCl2 to a final NEP concentration of 0.92 nM and peptide concentrations of 0.46, 0.92, 1.84, 3.68, or 7.36 μM and placed on a 96-well plate (Corning, USA). The final volume of the reaction solution was kept as 200 μL. The enzyme reaction was performed in the dark at 37° C. and the fluorescence was measured at 1, 2, 3, and 4 h with excitation at 360 nm and emission at 465 nm on a Paradigm™ Detection Platform (Beckman Coulter, USA) (FIG. 3). […] The enzyme reaction was performed in the dark at 37° C. and the fluorescence was measured at 1, 2, 3, and 4 h. […]
as §2

[2] = target: T6, angiotensin-converting enzyme (ACE) (Homo sapiens, UniProt P12821); assay: Fluorogenic enzyme assay, peptide substrate digested by ACE; assay type: biochemical; details: 2 μM substrate
T6 construct: purchased R&D Systems (USA)
Description: as §1
One commercially available quenched fluorogenic peptide substrate, Dansyl-^DAGF(pNO2)G, was tested for comparison. The fluorescence of dansyl is quenched by the presence of nitrophenyl group. Digestion was monitored by the fluorescence increase of dansyl at 562 nm when excited at 342 nm. […] This substrate also has enzyme specificity. It is sensitive to NEP and ACE (FIG. 8B). […]

[3] = target: T7, endothelin-converting enzyme 1 (ECE-1) (Homo sapiens, UniProt P42892); assay: Fluorogenic enzyme assay, peptide substrate digested by ECE-1; assay type: biochemical; details: 2 μM substrate, pH 7.5, 37° C.
T7 construct: purchased R&D Systems (USA)
T7 sequence (P42892 1-770): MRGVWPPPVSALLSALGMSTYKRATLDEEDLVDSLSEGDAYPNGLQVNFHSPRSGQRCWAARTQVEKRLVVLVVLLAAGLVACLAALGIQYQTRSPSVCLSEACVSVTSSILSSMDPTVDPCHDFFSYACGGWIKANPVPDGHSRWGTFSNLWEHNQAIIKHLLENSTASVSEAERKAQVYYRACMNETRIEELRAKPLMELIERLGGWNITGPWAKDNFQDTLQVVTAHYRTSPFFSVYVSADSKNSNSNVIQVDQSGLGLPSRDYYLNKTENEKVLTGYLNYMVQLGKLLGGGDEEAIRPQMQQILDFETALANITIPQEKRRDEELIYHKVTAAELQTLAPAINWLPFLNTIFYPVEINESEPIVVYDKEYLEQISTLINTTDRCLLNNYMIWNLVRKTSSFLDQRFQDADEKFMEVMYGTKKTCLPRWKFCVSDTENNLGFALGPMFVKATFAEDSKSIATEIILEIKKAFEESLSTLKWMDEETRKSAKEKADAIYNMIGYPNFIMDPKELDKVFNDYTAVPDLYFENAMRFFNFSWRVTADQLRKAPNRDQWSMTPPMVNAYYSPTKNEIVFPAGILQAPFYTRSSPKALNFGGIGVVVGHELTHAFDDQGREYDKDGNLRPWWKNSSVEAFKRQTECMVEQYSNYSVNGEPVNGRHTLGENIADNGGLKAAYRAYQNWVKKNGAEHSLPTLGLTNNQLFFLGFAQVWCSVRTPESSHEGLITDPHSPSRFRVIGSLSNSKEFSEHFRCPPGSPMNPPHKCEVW
Description: as §1

T5 sequence (P08473 whole entry): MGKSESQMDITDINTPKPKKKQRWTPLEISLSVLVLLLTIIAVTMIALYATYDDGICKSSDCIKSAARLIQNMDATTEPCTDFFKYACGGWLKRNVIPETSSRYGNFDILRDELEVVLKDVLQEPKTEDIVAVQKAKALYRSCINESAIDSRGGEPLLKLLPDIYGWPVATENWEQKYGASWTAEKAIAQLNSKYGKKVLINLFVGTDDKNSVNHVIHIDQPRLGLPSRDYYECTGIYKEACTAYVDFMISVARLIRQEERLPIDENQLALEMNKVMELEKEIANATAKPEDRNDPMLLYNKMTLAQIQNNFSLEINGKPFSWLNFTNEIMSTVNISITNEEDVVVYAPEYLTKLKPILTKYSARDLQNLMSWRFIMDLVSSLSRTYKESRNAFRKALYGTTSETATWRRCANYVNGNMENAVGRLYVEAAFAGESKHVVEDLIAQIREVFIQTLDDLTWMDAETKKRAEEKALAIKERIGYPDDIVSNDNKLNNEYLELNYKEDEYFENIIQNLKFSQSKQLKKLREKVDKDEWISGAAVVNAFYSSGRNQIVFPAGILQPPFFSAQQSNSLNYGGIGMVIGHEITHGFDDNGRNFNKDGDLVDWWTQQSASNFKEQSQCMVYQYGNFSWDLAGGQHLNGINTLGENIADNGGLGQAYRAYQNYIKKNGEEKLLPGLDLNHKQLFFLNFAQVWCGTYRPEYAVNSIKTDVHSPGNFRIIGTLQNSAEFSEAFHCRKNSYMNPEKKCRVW
T6 sequence (P12821 30-1306): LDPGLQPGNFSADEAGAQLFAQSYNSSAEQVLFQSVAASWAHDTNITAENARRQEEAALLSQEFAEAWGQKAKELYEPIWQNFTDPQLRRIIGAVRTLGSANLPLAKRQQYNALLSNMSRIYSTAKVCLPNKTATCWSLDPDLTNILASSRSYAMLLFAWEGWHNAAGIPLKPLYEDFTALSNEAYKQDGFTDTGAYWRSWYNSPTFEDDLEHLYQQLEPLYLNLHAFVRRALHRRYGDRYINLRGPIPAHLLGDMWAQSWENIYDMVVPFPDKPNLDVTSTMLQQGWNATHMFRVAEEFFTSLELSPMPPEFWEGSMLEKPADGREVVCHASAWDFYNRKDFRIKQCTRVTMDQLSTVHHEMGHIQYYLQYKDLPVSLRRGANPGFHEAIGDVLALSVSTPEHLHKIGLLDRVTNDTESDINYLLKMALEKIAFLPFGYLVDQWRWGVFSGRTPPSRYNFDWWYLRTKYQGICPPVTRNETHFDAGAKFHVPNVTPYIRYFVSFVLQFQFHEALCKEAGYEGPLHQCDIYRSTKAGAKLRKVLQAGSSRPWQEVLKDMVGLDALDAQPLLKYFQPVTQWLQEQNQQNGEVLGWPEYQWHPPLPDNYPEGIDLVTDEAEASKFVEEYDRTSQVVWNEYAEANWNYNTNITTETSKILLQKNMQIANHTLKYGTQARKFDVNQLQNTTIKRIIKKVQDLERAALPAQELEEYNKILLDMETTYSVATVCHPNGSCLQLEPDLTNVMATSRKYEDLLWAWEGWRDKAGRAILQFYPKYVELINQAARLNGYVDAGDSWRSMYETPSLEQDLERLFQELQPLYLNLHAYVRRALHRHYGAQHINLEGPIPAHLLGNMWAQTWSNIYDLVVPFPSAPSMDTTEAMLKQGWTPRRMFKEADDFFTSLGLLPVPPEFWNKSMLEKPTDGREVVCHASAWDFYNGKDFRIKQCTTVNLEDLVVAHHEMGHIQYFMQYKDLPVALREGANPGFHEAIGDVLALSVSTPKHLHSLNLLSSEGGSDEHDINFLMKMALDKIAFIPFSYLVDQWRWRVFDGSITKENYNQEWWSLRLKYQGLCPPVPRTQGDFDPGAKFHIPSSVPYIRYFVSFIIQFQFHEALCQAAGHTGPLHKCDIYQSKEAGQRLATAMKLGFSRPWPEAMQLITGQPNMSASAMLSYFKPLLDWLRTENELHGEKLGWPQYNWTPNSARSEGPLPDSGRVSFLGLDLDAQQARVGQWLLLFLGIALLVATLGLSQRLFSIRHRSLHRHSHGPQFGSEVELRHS
T4 sequence (P14780 107-707 limits assumed): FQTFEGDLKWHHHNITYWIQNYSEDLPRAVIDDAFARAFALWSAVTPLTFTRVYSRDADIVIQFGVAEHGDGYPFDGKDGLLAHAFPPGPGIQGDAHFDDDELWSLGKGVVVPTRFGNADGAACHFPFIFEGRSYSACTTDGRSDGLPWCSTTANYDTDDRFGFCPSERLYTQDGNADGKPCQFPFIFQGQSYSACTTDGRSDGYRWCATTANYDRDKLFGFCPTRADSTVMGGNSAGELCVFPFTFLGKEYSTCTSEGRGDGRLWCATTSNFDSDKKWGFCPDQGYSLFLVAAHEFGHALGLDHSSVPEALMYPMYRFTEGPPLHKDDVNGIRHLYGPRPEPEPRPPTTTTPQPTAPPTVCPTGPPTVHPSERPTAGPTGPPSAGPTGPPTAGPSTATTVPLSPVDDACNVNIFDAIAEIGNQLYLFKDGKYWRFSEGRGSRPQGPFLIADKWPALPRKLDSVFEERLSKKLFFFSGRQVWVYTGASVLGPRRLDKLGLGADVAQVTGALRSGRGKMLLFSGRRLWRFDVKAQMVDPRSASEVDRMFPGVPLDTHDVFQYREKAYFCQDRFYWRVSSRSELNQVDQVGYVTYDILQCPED
T3 sequence (P00747 581-810 limits assumed): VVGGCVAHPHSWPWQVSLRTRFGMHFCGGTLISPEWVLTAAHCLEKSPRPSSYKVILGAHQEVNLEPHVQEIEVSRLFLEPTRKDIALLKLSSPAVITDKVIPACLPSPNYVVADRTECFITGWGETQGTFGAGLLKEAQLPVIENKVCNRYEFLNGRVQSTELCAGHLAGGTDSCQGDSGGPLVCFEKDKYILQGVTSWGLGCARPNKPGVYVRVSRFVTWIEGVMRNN
T3 sequence (P00747 97-580 partner limits assumed): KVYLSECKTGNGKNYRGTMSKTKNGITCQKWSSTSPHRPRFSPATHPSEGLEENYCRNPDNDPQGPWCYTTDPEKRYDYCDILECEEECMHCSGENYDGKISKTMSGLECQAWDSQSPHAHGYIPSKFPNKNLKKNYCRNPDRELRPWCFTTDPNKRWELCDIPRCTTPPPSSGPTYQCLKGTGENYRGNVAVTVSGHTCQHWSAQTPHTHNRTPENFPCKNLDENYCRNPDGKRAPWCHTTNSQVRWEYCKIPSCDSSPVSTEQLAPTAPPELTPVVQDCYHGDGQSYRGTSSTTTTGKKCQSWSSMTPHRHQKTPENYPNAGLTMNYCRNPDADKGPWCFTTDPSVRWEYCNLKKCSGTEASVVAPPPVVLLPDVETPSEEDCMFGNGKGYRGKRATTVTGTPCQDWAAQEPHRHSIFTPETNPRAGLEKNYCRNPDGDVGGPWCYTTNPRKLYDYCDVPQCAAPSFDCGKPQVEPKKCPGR
T1 sequence (P08254 100-477): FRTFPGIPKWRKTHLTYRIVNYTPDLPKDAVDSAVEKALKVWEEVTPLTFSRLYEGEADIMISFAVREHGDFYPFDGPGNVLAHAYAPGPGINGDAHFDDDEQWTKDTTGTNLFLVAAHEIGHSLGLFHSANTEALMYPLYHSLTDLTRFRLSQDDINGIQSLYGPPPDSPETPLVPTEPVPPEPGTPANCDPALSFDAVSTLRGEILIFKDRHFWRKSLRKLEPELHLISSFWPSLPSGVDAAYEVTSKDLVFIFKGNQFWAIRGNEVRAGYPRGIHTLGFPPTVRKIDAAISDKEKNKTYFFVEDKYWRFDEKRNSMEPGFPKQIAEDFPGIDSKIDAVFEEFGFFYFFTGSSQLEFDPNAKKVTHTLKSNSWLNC

Molecule: O=C(C=Cc1ccc(O)c(O)c1)CC(=O)C=Cc1ccc(O)c(O)c1 [Compound 8, 1,7-Bis(3,4-dihydroxyphenyl)-1,6-heptadiene-3,5-dione]
- NEP activity of human SHSY5Y cells treated with compound (effect in words) (NEP): largely enhanced NEP activity; also recorded: large enhancements of NEP activity

Molecule: COc1ccc2ccccc2c1C=CC(=O)CC(=O)C=Cc1c(OC)ccc2ccccc12 [Compound 14, 1,7-Bis(2-methoxy-1-naphthyl)-1,6-heptadiene-3,5-dione]
- NEP activity of human SHSY5Y cells treated with compound (effect in words) (NEP): decreased NEP activity
- decrease of NEP activity (NEP): ~20%

Molecule: O=C(C=Cc1ccc(O)cc1)CC(=O)C=Cc1ccc(O)c(O)c1 [Compound 20, 1-(3,4-dihydroxyphenyl)-7-(4-hydroxyphenyl)-1,6-heptadiene-3,5-dione]
- NEP activity of human SHSY5Y cells treated with compound (effect in words) (NEP): largely enhanced NEP activity; also recorded: large enhancements of NEP activity

Molecule: COc1cc(C=CC(=O)CC(=O)C=Cc2ccc(O)c(O)c2)ccc1O [Compound 7, 1-(3,4-Dihydroxyphenyl)-7-(3-methoxy-4-hydroxyphenyl)-1,6-heptadiene-3,5-dione]
- NEP activity of human SHSY5Y cells treated with compound (effect in words) (NEP): largely enhanced NEP activity; also recorded: large enhancements of NEP activity

Molecule: COc1cc(C=CC(=O)CC(=O)C=Cc2cc(O)c(O)c(OC)c2)cc(O)c1O [Compound 10, 1,7-Bis(3,4-dihydroxy-5-methoxyphenyl)-1,6-heptadiene-3,5-dione]
- NEP activity of human SHSY5Y cells treated with compound (effect in words) (NEP): largely enhanced NEP activity; also recorded: large enhancements of NEP activity

Molecule: qf-Aβ(1-7)C: Peptide DAEFRHDC, Aβ residues 1-7 plus C-terminal Cys, with Alexa-350 on the Cys side-chain and Dabcyl quencher at the N-terminus ({Dabcyl′}-DAEFRHDC(Alexa‑350)-OH)
- fluorescence increase after digestion with MMP-3 (MMP-3; 1-h digestion): no significant fluorescence increase
- fluorescence increase after incubation with MMP-3 (MMP-3; 3 h): very weak fluorescence increase
- cleavage of the quenched fluorogenic peptide by IDE ([1]; 2 μM substrate, pH 7.5, 37° C.): effective
- lowest IDE concentration detected ([1]; 37° C., 1 h): 0.2 nM
- fluorescence increase after digestion with plasmin (Human plasmin; 1-h digestion): no significant fluorescence increase
- sensitivity of the system to plasmin (Human plasmin; pH 7.5, 37° C.): much less sensitive
- sensitivity of the system to MMP-9 (MMP-9): insensitive; also recorded: much less sensitive
- lowest substrate concentration at which 0.92 nM NEP could be detected (recombinant human NEP; 0.92 nM NEP, 37° C.): 0.46 µM
- fluorescence intensity increase with degradation of the quenched fluorogenic peptide (recombinant human NEP; 0.92 nM NEP, 37° C., emission at 465 nm): at least 40 fold
- cleavage of the quenched fluorogenic peptide by NEP (recombinant human NEP; 2 μM substrate, pH 7.5, 37° C.): effective
- fluorescence increase after digestion with ACE ([2]; 1-h digestion): no significant fluorescence increase
- fluorescence increase after incubation with ACE ([2]; 3 h): very weak fluorescence increase
- sensitivity of the system to ECE-1 [3]: insensitive; also recorded: much less sensitive
